Measurements as given in patent US20210379110A1 (LENTIGEN TECHNOLOGY, published 2021).
Numbering of substitutions follows the chain as printed.

T1: TSLPR-Fc peptide (R&D systems) (UniProt Q9HC73 25-231)
T1 construct: Bought reagent (R&D systems); also called TSLPR-Fc reagent; not shown: Fc part of the bought reagent
T1 sequence (looked up): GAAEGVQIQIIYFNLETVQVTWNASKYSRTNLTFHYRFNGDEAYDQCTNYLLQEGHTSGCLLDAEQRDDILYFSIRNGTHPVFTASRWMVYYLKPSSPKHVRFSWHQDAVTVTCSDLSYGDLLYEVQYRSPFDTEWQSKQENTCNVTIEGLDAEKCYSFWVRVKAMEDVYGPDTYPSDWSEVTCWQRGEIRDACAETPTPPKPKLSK

T2: recombinant human CD19 (labeled) (human, UniProt P15391 20-291, limits assumed)
T2 construct: Fluorescently labeled antigen titrated on yeast; The sorting steps used CD19-Fc/Anti-Hu-Fc, so the labeled antigen may be the Fc fusion; also called labeled CD19; recombinant human CD19 protein
T2 sequence (looked up): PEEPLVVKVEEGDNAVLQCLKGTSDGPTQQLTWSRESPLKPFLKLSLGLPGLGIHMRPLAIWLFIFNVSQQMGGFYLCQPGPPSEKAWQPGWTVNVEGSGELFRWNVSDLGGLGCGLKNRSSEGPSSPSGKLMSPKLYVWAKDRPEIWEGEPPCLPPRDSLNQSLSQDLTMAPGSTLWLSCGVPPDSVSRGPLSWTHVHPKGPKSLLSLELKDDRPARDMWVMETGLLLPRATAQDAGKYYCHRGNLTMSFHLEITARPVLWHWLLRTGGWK

B1: D0102 (EF-1a-CD19 (19217_1)-TSLPR CD8 BBz) (other)
chain: EVQLVQSGAEVKKPGASVKVSCKASGYTFTSYYMHWVRQAPGQGLEWMGLINPSGGSTSYAQKFQGRVTMTRDTSTSTVYMELSSLRSEDTAVYYCARSDRGITATDAFDIWGQGTMVTVSSGGGGSGGGGSGGGGSQSVLTQPPSVSVAPGRMAKITCGGSDIGNKNVHWYQQKPGQAPVLVVYDDYDRPSGIPERFSGSNSGDAATLTISTVEVGDEADYFCQVWDGSGDPYWMFGGGTQLTVLGGGGGSGGGGSGGGGSGGGGSGGGGSQVTLKESGPGILKPSQTLSLTCSFSGFSLSTSGMGVGWIRQPSGKGLEWLAHIWWDDDKYYNPSLKSQLTISKDTSRNQVFLKITSVDTADTATYYCSRRPRGTMDAMDYWGQGTSVTVSSGGGGSGGGGSGGGGSDIVMTQAASSLSASLGDRVTISCRASQDISKYLNWYQQKPDGTVKLLIYYTSRLHSGVPSRFSGSGSGTDYSLTIRNLEQEDIATYFCQQVYTLPWTFGGGTKLEIKAAATTTPAPRPPTPAPTIASQPLSLRPEACRPAAGGAVHTRGLDFACDIYIWAPLAGTCGVLLLSLVITLYCKRGRKKLLYIFKQPFMRPVQTTQEEDGCSCRFPEEEEGGCELRVKFSRSADAPAYQQGQNQLYNELNLGRREEYDVLDKRRGRDPEMGGKPRRKNPQEGLYNELQKDKMAEAYSEIGMKGERRRGKGHDGLYQGLSTATKDTYDALHMQALPPR
notes: also called CAR 19-TSLPR BBz; tandem D0102 CD19×TSLPR CAR
B2: D0101 (EF-1a-TSLPR-CD19 (19217_1) CD8 BBz) (other)
chain: QVTLKESGPGILKPSQTLSLTCSFSGFSLSTSGMGVGWIRQPSGKGLEWLAHIWWDDDKYYNPSLKSQLTISKDTSRNQVFLKITSVDTADTATYYCSRRPRGTMDAMDYWGQGTSVTVSSGGGGSGGGGSGGGGSDIVMTQAASSLSASLGDRVTISCRASQDISKYLNWYQQKPDGTVKLLIYYTSRLHSGVPSRFSGSGSGTDYSLTIRNLEQEDIATYFCQQVYTLPWTFGGGTKLEIKGGGGSGGGGSGGGGSGGGGSGGGGSEVQLVQSGAEVKKPGASVKVSCKASGYTFTSYYMHWVRQAPGQGLEWMGLINPSGGSTSYAQKFQGRVTMTRDTSTSTVYMELSSLRSEDTAVYYCARSDRGITATDAFDIWGQGTMVTVSSGGGGSGGGGSGGGGSQSVLTQPPSVSVAPGRMAKITCGGSDIGNKNVHWYQQKPGQAPVLVVYDDYDRPSGIPERFSGSNSGDAATLTISTVEVGDEADYFCQVWDGSGDPYWMFGGGTQLTVLGAAATTTPAPRPPTPAPTIASQPLSLRPEACRPAAGGAVHTRGLDFACDIYIWAPLAGTCGVLLLSLVITLYCKRGRKKLLYIFKQPFMRPVQTTQEEDGCSCRFPEEEEGGCELRVKFSRSADAPAYQQGQNQLYNELNLGRREEYDVLDKRRGRDPEMGGKPRRKNPQEGLYNELQKDKMAEAYSEIGMKGERRRGKGHDGLYQGLSTATKDTYDALHMQALPPR
notes: also called CAR TSLPR-19 BBz; tandem D0101 TSLPR×CD19 CAR
B3: human anti-CD19 ScFv binder M19217 (founder clone) (scFv)
chain: EVQLVQSGAEVKKPGASVKVSCKASGYTFTSYYMHWVRQAPGQGLEWMGIINPSGGSTSYAQKFQGRVTMTRDTSTSTVYMELSSLRSEDTAVYYCARSDRGITATDAFDIWGQGTMVTVSSGGGGSGGGGSGGGGSQSVLTQPPSVSVAPGQTAKITCGGSDIGNKNVHWYQQKPGQAPVLVVYDDYDRPSGIPERFSGSNSGDAATLTISTVEVGDEADYFCQVWDSSGDPYWVFGGGTQLTVLG
B4: human anti-CD19 ScFv binder M19217-40 (scFv)
chain: B3 chain with K13R, E46V, I50L, I157T, F223V, S229G
B5: human anti-CD19 ScFv binder M19217-23 (scFv)
chain: B3 chain with S31G, M48I, I50L, A61E, T69A, N166D, S229G, S230I
B6: human anti-CD19 ScFv binder M19217-7 (scFv)
chain: B3 chain with K12N, I50M, A105S, V149L, D189N, A206S, S229G
B7: human anti-CD19 ScFv binder M19217-2 (scFv)
chain: B3 chain with L45F, I50L, G56S, S85N, S148P, T158I, S229G
B8: human anti-CD19 ScFv binder M19217-38 (scFv)
chain: B3 chain with K13R, Q43R, I50L, K63E, T74M, T104S, T154M, D189N, S229G, V245D
B9: human anti-CD19 ScFv binder M19217-29 (scFv)
chain: B3 chain with I50M, V169A, P195S, S229G, Y234F
B10: human anti-CD19 ScFv binder M19217-1 (scFv, V domains shown)
VH: EVQLVQSGAEVKKPGASVKVSCKASGYTFTSYYMHWVRQAPGQGLEWMGLINPSGGSTSYAQKFQGRVTMTRDTSTSTVYMELSSLRSEDTAVYYCARSDRGITATDAFDIWGQGTMVTVSS
VL: QSVLTQPPSVSVAPGRMAKITCGGSDIGNKNVHWYQQKPGQAPVLVVYDDYDRPSGIPERFSGSNSGDAATLTISTVEVGDEADYFCQVWDGSGDPYWMFGGGTQLTVLG
notes: also called scFv of LTG2065

Biological target: T1, TSLPR-Fc peptide (R&D systems)
Assay: flow cytometry, CAR T cells stained with TSLPR-Fc then anti-Fc AF647
Protocol: Flow cytometric analysis was performed to detect the CAR molecule surface expression. Half million of harvested primary T cells were washed and stained with cold AutoMACS buffer supplemented with 0.5% bovine serum albumin (Miltenyi Biotec, Bergisch Gladbach, Germany), and resuspended in 200 ul Running Buffer before acquired by MACSQuant®10 Analyzer (Miltenyi Biotec Bergisch Gladbach, Germany). For CAR surface expression, TSLPR Fc, CD19Fc and CD22Fc peptide (R&D systems, Minneapolis, Minn.) were used followed anti Fc-AF647 (Jackson ImmunoResearch, West Grove, Pa.). T cell subtypes was further identified with anti-CD4 antibody conjugated to VioBlue fluorophore (Miltenyi Biotec Bergisch Gladbach, Germany). Dead cells in all studies were excluded by 7AAD staining (BD Biosciences, San Jose, Calif.). Flow data were analyzed with MACSQuantify software.
Specific detection of each scFv domain within the CAR structure was facilitated by CAR T cell staining with TSLPR-Fc peptide, or CD19-Fc peptide, followed by a secondary staining with anti-Fc AF647-labeled reagent, and fluorescence was detected in the APC channel. In CAR construct D0101, in which CD19 scFv was membrane-proximal and the TSLPR scFv was membrane-distal, the TSLPR scFv was detected at 44% of the transduced cells, and CD19 scFv was detected at 31%. In CAR construct D0102 with the reverse binder orientation (i.e. the TSLPR scFv membrane-proximal, and CD19 scFv membrane-distal), the detection levels were 85% and 75% for scFv TSLPR and CD19, respectively (FIG. 2).

percent of transduced T cells stained by antigen-Fc [%] | Binder
85 | B1
44 | B2

Biological target: T2, recombinant human CD19 (labeled)
Assay: flow cytometry of yeast-displayed scFv with decreasing amounts of labeled CD19
Protocol: To increase the affinity of m19217, a yeast-display m19217 mutant scFv library was created by using error-prone PCR to create random point mutations in scFv gene sequences. After electroporation, the resulting mutant library was then grown overnight at 30° C. for 16 hours in SDCAA medium and then switched into SGCAA medium at 30° C. for another 16 hours. The mutant library was then sorted through MACS (immunomagentic column, Miltenyi Biotec) with CD19-Fc as the capture antigen to downsize the library and to increase the population of mutants that could bind to CD19-Fc. The strongest binders were then selected by double staining the pools with Anti-c-Myc-Alexa 488 and CD19-Fc/Anti-Hu-Fc and selecting for the binders that had the highest binding affinities as well as c-Myc expression levels. This process was then repeated two more times, until flow cytometry of yeast particles with fluorescently tagged antigen yielded average binding affinities of the mutant pools that were increased over the starting construct. Binding affinities were estimated by flow cytometry of yeast pools using decreasing amounts of labeled CD19.

EC50 [µg/mL] | Binder
0.5 | B3
< 0.01 | B4
< 0.01 | B5
< 0.01 | B6
< 0.01 | B7
< 0.01 | B8
< 0.01 | B9
< 0.01 | B10
